This passage reports Kd results from paper PMC8624160.

This series addresses thrombin (UniProt P00734;P00734 328-363;364-622). Put plainly: fluorescence attenuation kinetics (kapp); Binding buffer, salt, pH and temperature not given in the material (PBS listed among reagents); ex/em 333/426 nm, constant SITS-aptamer, thrombin titrated, trip.
GTCCGTGGTAGGGCAGGTTGGGGTGAC (structured_DNA, 5' NH2-(CH2)6 linker coupled to SITS) [SITS-Thrombin27 5']: the Kd – broadly, the concentration at which binding is half-saturated – came out at 1590 nM. Consider AGTCCGTGGTAGGGCAGGTTGGGGTGACT (structured_DNA, 5' NH2-(CH2)6 linker coupled to SITS) [SITS-Thrombin29 5'], for which the Kd was 851 nM. The result for GTCCGTGGTAGGGCAGGTTGGGGTGAC (structured_DNA, 3' (CH2)6-NH2 linker coupled to SITS) [SITS-Thrombin27 3'] reads 437 nM; that for GGTTGGTGTGGTTGG (structured_DNA, 5' NH2-(CH2)6 linker coupled to SITS) [SITS-Thrombin15 5'], 10800 nM; that for GGTTGGTGTGGTTGG (structured_DNA, 3' (CH2)6-NH2 linker coupled to SITS) [SITS-Thrombin15 3'], 4980 nM.

Regarding AGTCCGTGGTAGGGCAGGTTGGGGTGACT (structured_DNA, 3' (CH2)6-NH2 linker coupled to SITS) [SITS-Thrombin29 3'], the Kd was found to be 180 nM.
